Experimental data reported in paper PMC6879633.

Experiments:
[1] = molecular target: WT-A34F, A34F point mutant of wild-type Gβ1 (Streptococcus); assay: SEC; analytical size-exclusion chromatography, Superdex 200 Increase; 1 mL of protein at 1 mM loaded; 10 mM sodium phosphate buffer pH 7.4, 1 mL/min; elution time compared with monomeric (wild type) and dimeric (WT-A34F) controls; self-association, monomer or dimer
[2] = molecular target: WT-A34F/V39L double mutant of wild-type Gβ1 (Streptococcus); assay: NMR titration
[3] = molecular target: WT-A34F/V39L double mutant of wild-type Gβ1 (Streptococcus); assay: SEC; analytical size-exclusion chromatography, Superdex 200 Increase; 1 mL of protein at 1 mM loaded; 10 mM sodium phosphate buffer pH 7.4, 1 mL/min; elution time compared with monomeric (wild type) and dimeric (WT-A34F) controls; self-association, monomer or dimer

WT-A34F, A34F point mutant of wild-type Gβ1 (domain or fragment)
stoichiometry N [1]: 2

WT-A34F/V39L double mutant of wild-type Gβ1 (domain or fragment)
Kd [2]: 116 µM
stoichiometry N [3]: 2
